Data published in US20200087400A1 (EUREKA THERAPEUTICS, published 2020).
Residue numbers refer to the chain shown, from its start.

B1: PSA146/HLA-A*02:01-specific scFv phage clone #2 (scFv, V domains shown)
VH: EVQLVQSGAEVKRPGSSVKVSCKASGGTFSSYAINWVRRAPGQGLEWMGKIIPIPGITNYAQKFQDRVTFTADTSTNIAYMELSSLRSEDTAMYYCARSYKWGSSLVDAWGQGTLVTVSS
VL: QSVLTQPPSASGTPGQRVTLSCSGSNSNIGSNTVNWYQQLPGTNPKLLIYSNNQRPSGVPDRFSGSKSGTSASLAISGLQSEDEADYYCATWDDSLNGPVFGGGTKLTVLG
B2: PSA146/HLA-A*02:01-specific scFv phage clone #6 (scFv, V domains shown)
VH: EVQLVQSGAEVKKPGASVKVSCKASGYTFTGYYIHWVRQAPGQGLEWMGGFDPEDGETIYAQKFQDRVTMTADTSTDTAYMELSSLRSEDTAVYYCARYGFDYWGQGTLVTVSS
VL: QAVVTQEPSLTVSPGGTVTLTCASSTGAVTSGYYPNWFQLKPGQAPRALIYTTGKKHSWAPARFSGSLLGGKAALTLSGVQPEDEAEYYCLLYSGGVWVFGGGTKLTVLG
B3: PSA146/HLA-A*02:01-specific scFv phage clone #10 (scFv, V domains shown)
VH: QVQLVQSGAEVKKPGSSVKVSCKASGGTFSSYAISWVRQAPGQGLEWMGWINPNSGGTNYAQKFQGRVTMTRDTSISTAYMELSRLRSDDTAVYYCARWSYYYFQQFWSLDGWGQGTLVTVSS
VL: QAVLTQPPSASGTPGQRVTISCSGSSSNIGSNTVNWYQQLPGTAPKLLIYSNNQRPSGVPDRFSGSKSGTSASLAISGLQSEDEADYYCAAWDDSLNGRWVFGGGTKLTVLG
B4: PSA146/HLA-A*02:01-specific scFv phage clone #3 (scFv, V domains shown)
VH: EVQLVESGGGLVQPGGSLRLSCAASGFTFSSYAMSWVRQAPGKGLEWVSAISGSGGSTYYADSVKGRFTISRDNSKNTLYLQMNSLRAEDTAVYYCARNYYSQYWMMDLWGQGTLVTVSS
VL: QSVLTQPPSVSGAPGQRVTISCTGSSSNFGAGYDVHWYQQLPGAAPKLLIYGDTNRPSGVPDRFSGSKSGTSASLAITGLQAEDEADYYCQSYDTSLSGSVFGGGTKLTVLG
B5: PSA146/HLA-A*02:01-specific scFv phage clone #5 (scFv, V domains shown)
VH: QVQLVQSGAEVKKPGDSVKVSCKPSGYNFLNYGINWVRQAPGQGLEWMGWISTYTGNTNYAQKLQGRVTFTTDTSTSTAYMEMRSLRSDDTAVYYCARSSEYYTWDHWGQGTLVTVSS
VL: B4 VL with F29I, A44T, D53N, T54S, T95S, S100W
B6: PSA146/HLA-A*02:01-specific scFv phage clone #9 (scFv, V domains shown)
VH: QVQLVQSGAEVKKPGASVKVSCKASGYTFTSYGISWVRQAPGQGLEWMGWISAYNGNTNYAQKLQGRVTMTTDTSTSTAYMELRSLRSDDTAVYYCARSSQYYVWDSWGQGTLVTVSS
VL: B4 VL with L4V, A44T, D53N, T54S, T95S, S100W

target: T1, PSA 146-154 peptide/HLA-A*02:01 complex on the cell surface (human); test: flow cytometry, phage on T2 cells, anti-M13 + R-PE anti-mouse IgG
T1 construct: also called PSA146/HLA-A*02:01; PSA146-loaded T2 cells
Method: (§1) Individual phage clones from enriched phage display panning pools against PSA146/HLA-A*02:01 complex were incubated in the coated plates. Binding of the phage clones was detected by HRP-conjugated anti-M13 antibodies and developed using HRP substrate. The absorbance was read at 450 nm. […] Then, unique antibody clones were identified through DNA sequencing of ELISA-positive clones. […] T2 cells loaded with different peptides and β2M were first stained with purified scFv phage clones, followed by staining with a mouse anti-M13 mAb, and finally R-PE conjugated horse anti-mouse IgG from Vector Labs. Each step of the staining was performed for between 30-60 minutes on ice and the cells were washed twice between stainings. All 16 clones recognized PSA146-loaded T2 cells specifically. FIG. 3 provides examples of PSA146/HLA-A*02:01 specific phage clone binding to peptide-loaded T2 cells through FACS.

| Binder | binding result |
| --- | --- |
| B1 | binds |
| B2 | binds |
| B3 | binds |
| B4 | binds |
| B5 | binds |
| B6 | binds |

target: T2, Bio-P19 member A2E-14 (chain 2: C-terminal BirA substrate peptide (BSP), enzymatically biotinylated; its letters are not printed in the patent and it is left out); test: phage ELISA, streptavidin plate, anti-M13-HRP
T2 construct: also called biotinylated control peptide A2E-14/HLA-A*02:01 monomer
Method: as §1

| Binder | binding result |
| --- | --- |
| B1 | no binding |
| B2 | no binding |
| B3 | no binding |
| B4 | no binding |
| B5 | no binding |
| B6 | no binding |

target: T3, Bio-P19 member A2E-19 (chain 2 carries a C-terminal BirA substrate peptide (BSP), enzymatically biotinylated; the BSP letters are not given in the patent and are left out); test: phage ELISA, streptavidin plate, anti-M13-HRP
T3 construct: also called biotinylated control peptide A2E-19/HLA-A*02:01 monomer
Method: as §1

| Binder | binding result |
| --- | --- |
| B1 | no binding |
| B2 | no binding |
| B3 | no binding |
| B4 | no binding |
| B5 | no binding |
| B6 | no binding |

target: T4, Bio-P19 member A2E-1 (chain 2: C-terminal BirA substrate peptide (BSP), enzymatically biotinylated; its letters are not printed in the patent and it is left out); test: phage ELISA, streptavidin plate, anti-M13-HRP
T4 construct: also called biotinylated control peptide A2E-1/HLA-A*02:01 monomer
Method: as §1

| Binder | binding result |
| --- | --- |
| B1 | no binding |
| B2 | no binding |
| B3 | no binding |
| B4 | no binding |
| B5 | no binding |
| B6 | no binding |

target: T5, Bio-P19 member A2E-5 (chain 2 carries a C-terminal BirA substrate peptide (BSP), enzymatically biotinylated; the BSP letters are not given in the patent and are left out); test: phage ELISA, streptavidin plate, anti-M13-HRP
T5 construct: also called biotinylated control peptide A2E-5/HLA-A*02:01 monomer
Method: as §1

| Binder | binding result |
| --- | --- |
| B1 | no binding |
| B2 | no binding |
| B3 | no binding |
| B4 | no binding |
| B5 | no binding |
| B6 | no binding |

target: T6, Bio-P19 member A2E-13 (chain 2: C-terminal BirA substrate peptide (BSP), enzymatically biotinylated; its letters are not printed in the patent and it is left out); test: phage ELISA, streptavidin plate, anti-M13-HRP
T6 construct: also called biotinylated control peptide A2E-13/HLA-A*02:01 monomer
Method: as §1

| Binder | binding result |
| --- | --- |
| B1 | no binding |
| B2 | no binding |
| B3 | no binding |
| B4 | no binding |
| B5 | no binding |
| B6 | no binding |

target: T7, Bio-P19 member A2E-9 (chain 2 (heavy): C-terminal BirA substrate peptide, biotinylated there by BirA; tag letters not given, left out); test: phage ELISA, streptavidin plate, anti-M13-HRP
T7 construct: also called biotinylated control peptide A2E-9/HLA-A*02:01 monomer; not shown: BirA substrate peptide (BSP) tag at the C-terminus of the heavy chain
Method: as §1

| Binder | binding result |
| --- | --- |
| B1 | no binding |
| B2 | no binding |
| B3 | no binding |
| B4 | no binding |
| B5 | no binding |
| B6 | no binding |

target: T8, Bio-P19 member A2E-21 (chain 2 carries a C-terminal BirA substrate peptide (BSP), enzymatically biotinylated; the BSP letters are not given in the patent and are left out); test: phage ELISA, streptavidin plate, anti-M13-HRP
T8 construct: also called biotinylated control peptide A2E-21/HLA-A*02:01 monomer
Method: as §1

| Binder | binding result |
| --- | --- |
| B1 | no binding |
| B2 | no binding |
| B3 | no binding |
| B4 | no binding |
| B5 | no binding |
| B6 | no binding |

target: T9, Bio-P19 member A2E-16 (chain 2: C-terminal BirA substrate peptide (BSP), enzymatically biotinylated; its letters are not printed in the patent and it is left out); test: phage ELISA, streptavidin plate, anti-M13-HRP
T9 construct: also called biotinylated control peptide A2E-16/HLA-A*02:01 monomer
Method: as §1

| Binder | binding result |
| --- | --- |
| B1 | no binding |
| B2 | no binding |
| B3 | no binding |
| B4 | no binding |
| B5 | no binding |
| B6 | no binding |

target: T10, Bio-P19 member A2E-11 (chain 2: C-terminal BirA substrate peptide (BSP), enzymatically biotinylated; its letters are not printed in the patent and it is left out); test: phage ELISA, streptavidin plate, anti-M13-HRP
T10 construct: also called biotinylated control peptide A2E-11/HLA-A*02:01 monomer
Method: as §1

| Binder | binding result |
| --- | --- |
| B1 | no binding |
| B2 | no binding |
| B3 | no binding |
| B4 | no binding |
| B5 | no binding |
| B6 | no binding |

target: T11, Bio-P19 member A2E-10 (chain 2: C-terminal BirA substrate peptide (BSP), enzymatically biotinylated; its letters are not printed in the patent and it is left out); test: phage ELISA, streptavidin plate, anti-M13-HRP
T11 construct: also called biotinylated control peptide A2E-10/HLA-A*02:01 monomer
Method: as §1

| Binder | binding result |
| --- | --- |
| B1 | no binding |
| B2 | no binding |
| B3 | no binding |
| B4 | no binding |
| B5 | no binding |
| B6 | no binding |

target: T12, Bio-P19 member A2E-4 (chain 2 carries a C-terminal BirA substrate peptide (BSP), enzymatically biotinylated; the BSP letters are not given in the patent and are left out); test: phage ELISA, streptavidin plate, anti-M13-HRP
T12 construct: also called biotinylated control peptide A2E-4/HLA-A*02:01 monomer
Method: as §1

| Binder | binding result |
| --- | --- |
| B1 | no binding |
| B2 | no binding |
| B3 | no binding |
| B4 | no binding |
| B5 | no binding |
| B6 | no binding |

target: T13, Bio-P19 member A2E-7 (chain 2 (heavy): C-terminal BirA substrate peptide, biotinylated there by BirA; tag letters not given, left out); test: phage ELISA, streptavidin plate, anti-M13-HRP
T13 construct: also called biotinylated control peptide A2E-7/HLA-A*02:01 monomer; not shown: BirA substrate peptide (BSP) tag at the C-terminus of the heavy chain
Method: as §1

| Binder | binding result |
| --- | --- |
| B1 | no binding |
| B2 | no binding |
| B3 | no binding |
| B4 | no binding |
| B5 | no binding |
| B6 | no binding |

target: T14, Bio-P19 member A2E-8 (chain 2 (heavy): C-terminal BirA substrate peptide, biotinylated there by BirA; tag letters not given, left out); test: phage ELISA, streptavidin plate, anti-M13-HRP
T14 construct: also called biotinylated control peptide A2E-8/HLA-A*02:01 monomer; not shown: BirA substrate peptide (BSP) tag at the C-terminus of the heavy chain
Method: as §1

| Binder | binding result |
| --- | --- |
| B1 | no binding |
| B2 | no binding |
| B3 | no binding |
| B4 | no binding |
| B5 | no binding |
| B6 | no binding |

target: T15, Bio-P19 member A2E-6 (chain 2 carries a C-terminal BirA substrate peptide (BSP), enzymatically biotinylated; the BSP letters are not given in the patent and are left out); test: phage ELISA, streptavidin plate, anti-M13-HRP
T15 construct: also called biotinylated control peptide A2E-6/HLA-A*02:01 monomer
Method: as §1

| Binder | binding result |
| --- | --- |
| B1 | no binding |
| B2 | no binding |
| B3 | no binding |
| B4 | no binding |
| B5 | no binding |
| B6 | no binding |

target: T16, Bio-P19 member A2E-17 (chain 2: C-terminal BirA substrate peptide (BSP), enzymatically biotinylated; its letters are not printed in the patent and it is left out); test: phage ELISA, streptavidin plate, anti-M13-HRP
T16 construct: also called biotinylated control peptide A2E-17/HLA-A*02:01 monomer
Method: as §1

| Binder | binding result |
| --- | --- |
| B1 | no binding |
| B2 | no binding |
| B3 | no binding |
| B4 | no binding |
| B5 | no binding |
| B6 | no binding |

target: T17, Bio-P19 member A2E-15 (chain 2: C-terminal BirA substrate peptide (BSP), enzymatically biotinylated; its letters are not printed in the patent and it is left out); test: phage ELISA, streptavidin plate, anti-M13-HRP
T17 construct: also called biotinylated control peptide A2E-15/HLA-A*02:01 monomer
Method: as §1

| Binder | binding result |
| --- | --- |
| B1 | no binding |
| B2 | no binding |
| B3 | no binding |
| B4 | no binding |
| B5 | no binding |
| B6 | no binding |
